Data taken from PMC7347944.
“And” between values parts separate entries of the source, which are not always exact repeats. Equal values may be shown once.

Columns and labels:
huPrP(23−144) (human) [1] = target: huPrP(23−144) (human) (UniProt P04156); assay: co-sedimentation
huPrP(23−144) (human) [2] = target: huPrP(23−144) (human) (UniProt P04156); assay: NMR titration

“α-synuclein oligomers (from UniProt P37840 1-140) (complex)” was tested, and the stoichiometry N (αSyn:huPrP(23−144)) (huPrP(23−144) (human) [1]) was 0.96 and the stoichiometry N (αSyn:huPrP molar ratio) (huPrP(23−144) (human) [2]) was 1.45 and 0.92.
